In US20220041658A1 (PROTAGONIST THERAPEUTICS, published 2022):
Positions of bridges follow the written chain, without caps; N, C: chain ends. Non-standard residues stand in square brackets, D forms with d. Trp(7-Me) = Cc1cccc2c(C[C@H](N)C(=O)O)c[nH]c12; 2Nal = N[C@@H](Cc1ccc2ccccc2c1)C(=O)O; AEF = NCCOc1ccc(C[C@H](N)C(=O)O)cc1; Cit = NC(=O)NCCC[C@H](N)C(=O)O; Pen = CC(C)(S)[C@H](N)C(=O)O; αMeK = C[C@](N)(CCCCN)C(=O)O; Aib = CC(C)(N)C(=O)O

Tests used:
[1] = molecular target: T1, interleukin-23 receptor (IL-23R) (human, UniProt Q5VWK5 24-629); experiment: cell-based or functional assay
T1 sequence (looked up): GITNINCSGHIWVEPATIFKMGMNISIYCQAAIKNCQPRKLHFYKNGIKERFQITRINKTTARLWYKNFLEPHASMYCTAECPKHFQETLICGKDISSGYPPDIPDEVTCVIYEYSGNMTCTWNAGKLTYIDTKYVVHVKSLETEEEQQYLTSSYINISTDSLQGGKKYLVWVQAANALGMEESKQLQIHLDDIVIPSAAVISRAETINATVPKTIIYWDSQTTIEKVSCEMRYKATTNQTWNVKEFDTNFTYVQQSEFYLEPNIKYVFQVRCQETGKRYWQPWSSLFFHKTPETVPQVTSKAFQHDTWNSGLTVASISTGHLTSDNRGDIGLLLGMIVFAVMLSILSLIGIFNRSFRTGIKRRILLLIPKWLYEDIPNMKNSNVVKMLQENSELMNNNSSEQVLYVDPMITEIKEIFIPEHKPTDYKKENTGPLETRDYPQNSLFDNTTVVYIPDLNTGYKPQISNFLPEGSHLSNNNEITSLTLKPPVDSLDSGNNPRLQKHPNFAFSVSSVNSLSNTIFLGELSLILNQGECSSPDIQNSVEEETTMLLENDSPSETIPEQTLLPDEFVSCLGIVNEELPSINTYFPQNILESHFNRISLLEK

[2] = molecular target: T1, interleukin-23 receptor (IL-23R); experiment: cell-based or functional assay; remark: listed apart in the source

B1: Peptide of SEQ ID NO: 252 (peptide)
peptide: XNTXKXXXXKNK
modifications: Ac-[Pen]-NT-[W(7-Me)]-[Lys(Ac)]-[Pen]-Phe[4-(2-aminoethoxy)]-[2-Nal]-[a-MeLys]-[Lys(Ac)]-N-[(D)Lys]-NH2; Pen-Pen disulfide
pStat3 HTRF IC50 [1]: 0.338 nM
NK Cell Assay IC50 [2]: 3.32 nM

B2: Peptide of SEQ ID NO: 251 (peptide)
peptide: XNTXKXXXXKNV
modifications: Ac-[Pen]-NT-[W(7-Me)]-[Lys(Ac)]-[Pen]-Phe[4-(2-aminoethoxy)]-[2-Nal]-[a-MeLys]-[Lys(Ac)]-N-[(D)Val]-NH2; Pen-Pen disulfide
pStat3 HTRF IC50 [1]: 0.986 nM
NK Cell Assay IC50 [2]: 8.19 nM

B3: Peptide of SEQ ID NO: 245 (peptide)
peptide: XNTXKXXXXKNL
modifications: Ac-[Pen]-NT-[W(7-Me)]-[Lys(Ac)]-[Pen]-Phe[4-(2-aminoethoxy)]-[2-Nal]-[a-MeLys]-[Lys(Ac)]-N-[(D)Leu]-NH2; Pen-Pen disulfide
pStat3 HTRF IC50 [1]: 0.51 nM
NK Cell Assay IC50 [2]: 2.7 nM

B4: Peptide of SEQ ID NO: 239 (peptide)
peptide: XKTXQXXXXKNX
modifications: Ac-[Pen]-[Lys(Ac)]-T-[W(7-Me)]-Q-[Pen]-Phe[4-(2-aminoethoxy)]-[2-Nal]-[a-MeLys]-[Lys(Ac)]-N-[bA]-NH2; Pen-Pen disulfide
pStat3 HTRF IC50 [1]: 1.66 nM
NK Cell Assay IC50 [2]: 4.1 nM

Ac-[Pen]NT[Trp(7-Me)]K(Ac)[Pen]H[2Nal][αMeK]K(Ac)N[dL]-NH2 (disulfide 1-6 (inferred)) [Peptide of SEQ ID NO: 290]
pStat3 HTRF IC50 [1]: 2.45 nM
NK Cell Assay IC50 [2]: 11 nM

B5: Peptide of SEQ ID NO: 224 (peptide)
peptide: XNTXQXXXXKXX
modifications: Ac-[Pen]-NT-[W(7-Me)]-Q-[Pen]-Phe[4-(2-aminoethoxy)]-[2-Nal]-[a-MeLeu]-[Lys(Ac)]-[Sarc]-[bA]-NH2; Pen-Pen disulfide
pStat3 HTRF IC50 [1]: 124 nM
NK Cell Assay IC50 [2]: > 500 nM

B6: Peptide of SEQ ID NO: 264 (peptide)
peptide: Ac-[Pen]NT[Trp(7-Me)][Cit][Pen][AEF][2Nal][αMeK]K(Ac)N[Aib]-NH2
modifications: disulfide 1-6
SMILES: CC(=O)NCCCC[C@H](NC(=O)[C@](C)(CCCCN)NC(=O)[C@H](Cc1ccc2ccccc2c1)NC(=O)[C@H](Cc1ccc(OCCN)cc1)NC(=O)[C@H]1NC(=O)[C@H](CCCNC(N)=O)NC(=O)[C@H](Cc2c[nH]c3c(C)cccc23)NC(=O)[C@H]([C@@H](C)O)NC(=O)[C@H](CC(N)=O)NC(=O)[C@@H](NC(C)=O)C(C)(C)SSC1(C)C)C(=O)N[C@@H](CC(N)=O)C(=O)NC(C)(C)C(N)=O
pStat3 HTRF IC50 [1]: 0.596 nM
NK Cell Assay IC50 [2]: 5.15 nM

B7: Peptide of SEQ ID NO: 234 (peptide)
peptide: XNTXXXXXXKNX
modifications: Ac-[Pen]-NT-[W(7-Me)]-[a-MeLys]-[Pen]-Phe[4-(2-aminoethoxy)]-[2-Nal]-[a-MeLeu]-[Lys(Ac)]-N-[bA]-NH2; Pen-Pen disulfide
pStat3 HTRF IC50 [1]: 3.48 nM
NK Cell Assay IC50 [2]: 7.7 nM

B8: Peptide of SEQ ID NO: 258 (peptide)
peptide: XNTXKXXXXKNF
modifications: Ac-[Pen]-NT-[W(7-Me)]-[Lys(Ac)]-[Pen]-Phe[4-(2-aminoethoxy)]-[2-Nal]-[a-MeLys]-[Lys(Ac)]-N-[(D)Phe]-NH2; Pen-Pen disulfide
pStat3 HTRF IC50 [1]: 0.92 nM
NK Cell Assay IC50 [2]: 9.7 nM

B9: Peptide of SEQ ID NO: 223 (peptide)
peptide: XNTXQXXXXKXX
modifications: Ac-[Pen]-NT-[W(7-Me)]-Q-[Pen]-Phe[4-(2-aminoethoxy)]-[2-Nal]-[a-MeLeu]-[Lys(Ac)]-[N-MeAla]-[bA]-NH2; Pen-Pen disulfide
pStat3 HTRF IC50 [1]: 134 nM
NK Cell Assay IC50 [2]: 8.3 nM

B10: Peptide of SEQ ID NO: 217 (peptide)
peptide: XNTXQXXXXKTX
modifications: Ac-[Pen]-NT-[W(7-Me)]-Q-[Pen]-Phe[4-(2-aminoethoxy)]-[2-Nal]-[a-MeLeu]-[Lys(Ac)]-T-[bA]-NH2; Pen-Pen disulfide
pStat3 HTRF IC50 [1]: 1.61 nM
NK Cell Assay IC50 [2]: 13.3 nM

B11: Peptide of SEQ ID NO: 259 (peptide)
peptide: Ac-[Pen]NT[Trp(7-Me)][Cit][Pen][AEF][2Nal][αMeK]K(Ac)N[dY]-NH2
modifications: disulfide 1-6
SMILES: CC(=O)NCCCC[C@H](NC(=O)[C@](C)(CCCCN)NC(=O)[C@H](Cc1ccc2ccccc2c1)NC(=O)[C@H](Cc1ccc(OCCN)cc1)NC(=O)[C@H]1NC(=O)[C@H](CCCNC(N)=O)NC(=O)[C@H](Cc2c[nH]c3c(C)cccc23)NC(=O)[C@H]([C@@H](C)O)NC(=O)[C@H](CC(N)=O)NC(=O)[C@@H](NC(C)=O)C(C)(C)SSC1(C)C)C(=O)N[C@@H](CC(N)=O)C(=O)N[C@H](Cc1ccc(O)cc1)C(N)=O
pStat3 HTRF IC50 [1]: 0.607 nM
NK Cell Assay IC50 [2]: 7.6 nM

B12: Peptide of SEQ ID NO: 216 (peptide)
peptide: XNTXQXXXXKIX
modifications: Ac-[Pen]-NT-[W(7-Me)]-Q-[Pen]-Phe[4-(2-aminoethoxy)]-[2-Nal]-[a-MeLeu]-[Lys(Ac)]-I-[bA]-NH2; Pen-Pen disulfide
pStat3 HTRF IC50 [1]: 13.5 nM
NK Cell Assay IC50 [2]: > 500 nM
